According to patent US20230251254A1, “METHOD FOR EVALUATING INTERACTION BETWEEN IMMOBILIZED SUBSTANCE IMMOBILIZED DIRECTLY OR INDIRECTLY ON SUBSTRATE AND PROXIMITY-DEPENDENT MODIFYING ENZYMELABELED SUBSTANCE TO BE ANALYZED” (CELLFREE SCIENCES CO.,LTD., priority 2020, published 2023):

Legend:
[1] = tested on: interaction between TP53 and MDM2 or between Iκβα and RelA; test: Comparison of altered biotinylation enzymes by the method of Example 2 (Example 4); assay type: biochemical; conditions: for specificity / non-specific signal of labeling: luminescence detection; for labeling activity on introduction of Q141R mutation into AVVA mutant: compared with AVVA mutant without Q141R
Method: In this Example, various altered biotinylation enzymes were evaluated by the method used in Example 2.
Specifically, by a method similar to that for AirID (SEQ ID NO: 3) in Example 2, the interaction between TP53 and MDM2 or between Iκβα and RelA was analyzed using BioID (SEQ ID NO: 1), TurboID (SEQ ID NO: 2), an AirID-S118G mutant (SEQ ID NO: 12), an AWA-R118S mutant (SEQ ID NO: 13), an AVVA-R118G mutant (SEQ ID NO: 14), an AWA-R118S, Q141R mutant (SEQ ID NO: 15), and an AVVA-R118G, Q141R mutant (SEQ ID NO: 16).
The results in the figures were standardized in that the dispensation amount of the magnetic beads on the wells of the plate was 75 nL. An exposure time at the time of luminescence detection with LAS4000 (manufactured by GE Healthcare) was set to 3 minutes for TurboID, and 10 minutes for the protein of any other sequence identification number. A signal value was obtained from a measurement image through use of Array-Pro Analyzer™.

FLAG-GST-fused MDM2 [2] = molecular target: T1, FLAG-GST-fused MDM2 (UniProt P23804 1-489); test: proximity-biotinylation bead array, streptavidin-HRP luminescence; labeling 26°C; exposure 10 min
T1 construct: Immobilized on glutathione magnetic beads on the non-denatured protein array; Order of the parts follows the printed name FLAG-GST; also called FLAG-GST-fused immobilized substance (MDM2); not shown: FLAG tag protein; GST protein (glutathione S-transferase tag)

FLAG-GST-fused MDM2 [3] = molecular target: T1, FLAG-GST-fused MDM2; test: proximity-biotinylation bead array, streptavidin-HRP luminescence; labeling 26°C 1 h; exposure 10 min
FLAG-GST-fused RelA [4] = molecular target: T2, FLAG-GST-fused RelA (UniProt Q04206 1-551); test: as above
T2 construct: Immobilized on glutathione magnetic beads on the non-denatured protein array; Order of the parts follows the printed name FLAG-GST; also called FLAG-GST-fused immobilized substance (RelA); not shown: FLAG tag protein; GST protein (glutathione S-transferase tag)

FLAG-GST-fused MDM2 [5] = molecular target: T1, FLAG-GST-fused MDM2; test: proximity-biotinylation bead array, streptavidin-HRP luminescence; labeling 26°C 3 h; exposure 10 min
FLAG-GST-fused RelA [6] = molecular target: T2, FLAG-GST-fused RelA; test: as above
FLAG-GST-fused MDM2 [7] = molecular target: T1, FLAG-GST-fused MDM2; test: proximity-biotinylation bead array, streptavidin-HRP luminescence; labeling 26°C 30 min; exposure 10 min

T1 sequence (P23804 whole entry, the tested form may be a part): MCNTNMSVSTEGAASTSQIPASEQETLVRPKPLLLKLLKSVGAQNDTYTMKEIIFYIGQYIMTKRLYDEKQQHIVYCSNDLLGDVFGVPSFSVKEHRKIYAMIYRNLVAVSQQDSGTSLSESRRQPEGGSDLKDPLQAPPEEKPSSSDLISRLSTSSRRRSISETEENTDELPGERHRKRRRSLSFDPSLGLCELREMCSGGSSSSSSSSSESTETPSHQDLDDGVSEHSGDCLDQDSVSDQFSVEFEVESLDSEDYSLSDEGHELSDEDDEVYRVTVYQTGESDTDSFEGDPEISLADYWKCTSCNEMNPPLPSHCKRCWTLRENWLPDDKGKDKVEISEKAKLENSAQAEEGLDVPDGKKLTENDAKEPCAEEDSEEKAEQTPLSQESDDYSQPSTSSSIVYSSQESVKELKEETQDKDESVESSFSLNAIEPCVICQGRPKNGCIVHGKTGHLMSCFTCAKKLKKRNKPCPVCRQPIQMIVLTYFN
T2 sequence (Q04206 other isoform, or with tags, fused parts or gaps): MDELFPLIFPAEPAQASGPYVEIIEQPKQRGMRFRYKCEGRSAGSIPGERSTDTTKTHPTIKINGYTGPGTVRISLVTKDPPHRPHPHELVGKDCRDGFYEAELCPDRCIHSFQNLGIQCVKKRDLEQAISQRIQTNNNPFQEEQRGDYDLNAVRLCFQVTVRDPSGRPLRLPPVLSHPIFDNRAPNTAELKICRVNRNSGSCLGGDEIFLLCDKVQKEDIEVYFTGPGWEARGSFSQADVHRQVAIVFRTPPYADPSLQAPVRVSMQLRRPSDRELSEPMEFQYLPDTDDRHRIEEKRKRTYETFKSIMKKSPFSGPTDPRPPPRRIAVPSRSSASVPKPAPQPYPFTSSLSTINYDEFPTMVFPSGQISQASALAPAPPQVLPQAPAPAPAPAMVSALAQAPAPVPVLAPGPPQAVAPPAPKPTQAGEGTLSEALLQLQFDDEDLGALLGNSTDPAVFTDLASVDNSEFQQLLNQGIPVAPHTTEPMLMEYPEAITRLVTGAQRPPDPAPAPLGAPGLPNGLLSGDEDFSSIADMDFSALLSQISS

Molecule: BioID: proximity-dependent biotin ligase, SEQ ID NO: 1 [reference compound]
- specificity / non-specific signal of labeling ([1]; 75 nL magnetic beads): low non-specificity
- biotin modification activity ([1]; compared with the other enzymes): lower biotin modification activity than the other enzymes

B1: AVVA-R118S mutant-fused Iκβα (other)
fusion protein: MSEQWSRKREILALLSSGHFVSGEELATQLGISRTAVSKHIAALEEYGVDIYSVKGKGYKLANPISLIDESKLKSAINNRCFYFDEIPSTNGFMLKHAEELKSGDICVAEYQSAGRGSRGRTWVSPYGCHLYFSLYWRFPQGMAQAMGLSLVVACSLVKVLKSFGVDGVGVKWPNDIYLNHKKLAGVLIEMSGQADSECHLVIGIGINMAMSEQQGKKIDQPWSDLSSLTSMPDKTELLIALQKQLKQDLELFEREGLKAFQPRWQEADLFYGKQIKLLMGENQVEGICRGIDEQGAVLLETDDGIQAFIGGEISLRAAMFQAAERPQEWAMEGPRDGLKKERLLDDRHDSGLDSMKDEEYEQMVKELQEIRLEPQEVPRSSEPWKQQLTEDGDSFLHLAIIHEEKALTMEVIRQVKGDLAFLNFQNNLQQTPLHLAVITNQPEIAEALLGAGCDPELRDFRGNTPLHLACEQGCLASVGVLTQSCTTPHLHSILKATNYNGHTCLHLASIHGYLGIVELLVSLGADVNAQEPCNGRTALHLAVDLQNPDLVSLLLKCGADVNRVTYQGYSPYQLTWGRPSTRIQQQLGQLTLENLQMLPESEDEESYDTESEFTEFTEDELPYDDCVFGGQRLTL
- binding result (FLAG-GST-fused MDM2 [2]): no binding
- signal value (FLAG-GST-fused MDM2 [3]): 310
- signal value (FLAG-GST-fused RelA [4]): 11100
- signal value (FLAG-GST-fused MDM2 [5]): 330
- signal value (FLAG-GST-fused RelA [6]): 50000
- signal value (FLAG-GST-fused MDM2 [7]): 320

B2: TurboID: proximity-dependent biotin ligase, SEQ ID NO: 2 (protein)
chain: MKDNTVPLKLIALLANGEFHSGEQLGETLGMSRAAINKHIQTLRDWGVDVFTVPGKGYSLPEPIPLLNAKQILGQLDGGSVAVLPVVDSTNQYLLDRIGELKSGDACIAEYQQAGRGSRGRKWFSPFGANLYLSMFWRLKRGPAAAIGLGPVIGIVMAEALRKLGADKVRVKWPNDLYLQDRKLAGILVELAGITGDAAQIVIGAGINVAMRRVEESVVNQGWITLQEAGINLDRNTLAATLIRELRAALELFEQEGLAPYLPRWEKLDNFINRPVKLIIGDKEIFGISRGIDKQGALLLEQDGVIKPWMGGEISLRSAEK
modifications: TurboID
- signal intensity ([1]; 75 nL magnetic beads, exposure 3 minutes for TurboID): high signal intensity
- specificity / non-specific signal of labeling ([1]; 75 nL magnetic beads): a certain signal (non-specific) is found even for an interaction that should be negative

B3: AWA-R118S, Q141R mutant: proximity-dependent biotin ligase, SEQ ID NO: 15 (protein)
chain: MSEQWSRKREILALLSSGHFVSGEELATQLGISRTAVSKHIAALEEYGVDIYSVKGKGYKLANPISLIDESKLKSAINNRCFYFDEIPSTNGFMLKHAEELKSGDICVAEYQSAGRGSRGRTWVSPYGCHLYFSLYWRFPRGMAQAMGLSLVVACSLVKVLKSFGVDGVGVKWPNDIYLNHKKLAGVLIEMSGQADSECHLVIGIGINMAMSEQQGKKIDQPWSDLSSLTSMPDKTELLIALQKQLKQDLELFEREGLKAFQPRWQEADLFYGKQIKLLMGENQVEGICRGIDEQGAVLLETDDGIQAFIGGEISLRAA
modifications: AVVA-R118S,Q141R
- specificity / non-specific signal of labeling ([1]; 75 nL magnetic beads): extremely high specificity
- labeling activity on introduction of Q141R mutation into AVVA mutant [1]: enhances its labeling activity

B4: AVVA-R118G mutant: proximity-dependent biotin ligase, SEQ ID NO: 14 (protein)
chain: MSEQWSRKREILALLSSGHFVSGEELATQLGISRTAVSKHIAALEEYGVDIYSVKGKGYKLANPISLIDESKLKSAINNRCFYFDEIPSTNGFMLKHAEELKSGDICVAEYQSAGRGGRGRTWVSPYGCHLYFSLYWRFPQGMAQAMGLSLVVACSLVKVLKSFGVDGVGVKWPNDIYLNHKKLAGVLIEMSGQADSECHLVIGIGINMAMSEQQGKKIDQPWSDLSSLTSMPDKTELLIALQKQLKQDLELFEREGLKAFQPRWQEADLFYGKQIKLLMGENQVEGICRGIDEQGAVLLETDDGIQAFIGGEISLRAA
modifications: AVVA-R118G
- specificity / non-specific signal of labeling ([1]; 75 nL magnetic beads): extremely high specificity

B5: AVVA-R118G, Q141R mutant: proximity-dependent biotin ligase, SEQ ID NO: 16 (protein)
chain: MSEQWSRKREILALLSSGHFVSGEELATQLGISRTAVSKHIAALEEYGVDIYSVKGKGYKLANPISLIDESKLKSAINNRCFYFDEIPSTNGFMLKHAEELKSGDICVAEYQSAGRGGRGRTWVSPYGCHLYFSLYWRFPRGMAQAMGLSLVVACSLVKVLKSFGVDGVGVKWPNDIYLNHKKLAGVLIEMSGQADSECHLVIGIGINMAMSEQQGKKIDQPWSDLSSLTSMPDKTELLIALQKQLKQDLELFEREGLKAFQPRWQEADLFYGKQIKLLMGENQVEGICRGIDEQGAVLLETDDGIQAFIGGEISLRAA
modifications: AVVA-R118G,Q141R
- specificity / non-specific signal of labeling ([1]; 75 nL magnetic beads): extremely high specificity
- labeling activity on introduction of Q141R mutation into AVVA mutant [1]: enhances its labeling activity

B6: AWA-R118S mutant: proximity-dependent biotin ligase, SEQ ID NO: 13 (protein)
chain: MSEQWSRKREILALLSSGHFVSGEELATQLGISRTAVSKHIAALEEYGVDIYSVKGKGYKLANPISLIDESKLKSAINNRCFYFDEIPSTNGFMLKHAEELKSGDICVAEYQSAGRGSRGRTWVSPYGCHLYFSLYWRFPQGMAQAMGLSLVVACSLVKVLKSFGVDGVGVKWPNDIYLNHKKLAGVLIEMSGQADSECHLVIGIGINMAMSEQQGKKIDQPWSDLSSLTSMPDKTELLIALQKQLKQDLELFEREGLKAFQPRWQEADLFYGKQIKLLMGENQVEGICRGIDEQGAVLLETDDGIQAFIGGEISLRAA
modifications: AVVA-R118S
- specificity / non-specific signal of labeling ([1]; 75 nL magnetic beads): extremely high specificity

B7: AirID: proximity-dependent biotin ligase, SEQ ID NO: 3 (protein)
chain: MKDNTVPLTLISILADGEFHSGEQLGEQLGMSRAAINKHIKTLRDWGVDVFRVQGKGYCLPEPIQLLDEEKIRQQLDEGSVTVLPVIDSTNQYLLDRLDELTSGDVCIAEYQQAGRGSRGRKWFSPFGANLYLSMYWRLEQGPAAAMGLSLVIGIVMAETLQKLGADGVRVKWPNDLYLNDRKLAGILVEMTGKTGDAAHIVIGAGINLSMREPETDEVDQSWINLQEAGITIDRNQLAARLIKDLRSALRQFEQQGLAPFLSRWEALDNFINRPVKLIIGDREIHGIARGINEQGALLLEQDGVIKPWIGGEISLRSA
modifications: AirID
- specificity / non-specific signal of labeling ([1]; 75 nL magnetic beads): extremely high specificity

B8: AirID-S118G mutant: proximity-dependent biotin ligase, SEQ ID NO: 12 (protein)
chain: MKDNTVPLTLISILADGEFHSGEQLGEQLGMSRAAINKHIKTLRDWGVDVFRVQGKGYCLPEPIQLLDEEKIRQQLDEGSVTVLPVIDSTNQYLLDRLDELTSGDVCIAEYQQAGRGGRGRKWFSPFGANLYLSMYWRLEQGPAAAMGLSLVIGIVMAETLQKLGADGVRVKWPNDLYLNDRKLAGILVEMTGKTGDAAHIVIGAGINLSMREPETDEVDQSWINLQEAGITIDRNQLAARLIKDLRSALRQFEQQGLAPFLSRWEALDNFINRPVKLIIGDREIHGIARGINEQGALLLEQDGVIKPWIGGEISLRSA
modifications: AirID_S118G
- specificity / non-specific signal of labeling ([1]; 75 nL magnetic beads): extremely high specificity
